T1: APBA2_2, Q99767
T1 sequence (Q99767 654-744, limits assumed, looked up): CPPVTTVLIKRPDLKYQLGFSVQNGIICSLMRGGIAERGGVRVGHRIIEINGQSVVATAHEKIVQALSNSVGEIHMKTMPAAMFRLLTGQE

T2: DFNB31_2, Q9P202
T2 sequence (Q9P202 274-371, limits assumed, looked up): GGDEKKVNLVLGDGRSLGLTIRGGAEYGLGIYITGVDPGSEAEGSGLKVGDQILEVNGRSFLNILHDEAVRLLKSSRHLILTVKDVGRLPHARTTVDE

T3: GRIP1_7, Q9Y3R0
T3 sequence (Q9Y3R0 999-1096, limits assumed, looked up): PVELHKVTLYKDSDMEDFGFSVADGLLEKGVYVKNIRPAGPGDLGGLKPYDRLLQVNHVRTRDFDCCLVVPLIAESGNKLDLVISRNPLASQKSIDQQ

T4: HTRA4, P83105
T4 sequence (P83105 378-476, limits assumed, looked up): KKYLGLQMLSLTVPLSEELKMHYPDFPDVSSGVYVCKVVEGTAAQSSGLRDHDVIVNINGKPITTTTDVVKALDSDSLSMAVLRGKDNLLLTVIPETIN

T5: LIN7A, O14910
T5 sequence (O14910 103-200, limits assumed, looked up): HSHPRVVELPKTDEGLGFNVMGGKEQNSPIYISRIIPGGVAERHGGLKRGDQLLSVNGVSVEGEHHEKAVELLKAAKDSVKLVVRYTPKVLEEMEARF

T6: LNX2_2, Q8N448
T6 sequence (Q8N448 334-432, limits assumed, looked up): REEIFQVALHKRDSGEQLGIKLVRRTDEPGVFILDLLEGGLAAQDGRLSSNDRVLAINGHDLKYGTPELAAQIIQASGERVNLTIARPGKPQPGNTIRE

T7: MPDZ_10, O75970
T7 sequence (O75970 1624-1722, limits assumed, looked up): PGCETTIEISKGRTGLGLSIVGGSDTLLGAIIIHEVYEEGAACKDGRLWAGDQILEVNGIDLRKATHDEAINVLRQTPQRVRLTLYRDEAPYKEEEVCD

T8: MPP2, Q14168
T8 sequence (Q14168 180-250, limits assumed, looked up): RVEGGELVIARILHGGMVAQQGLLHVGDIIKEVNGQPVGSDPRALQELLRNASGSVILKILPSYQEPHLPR

T9: NHERF3_4, Q5T2W1
T9 sequence (Q5T2W1 373-468, limits assumed, looked up): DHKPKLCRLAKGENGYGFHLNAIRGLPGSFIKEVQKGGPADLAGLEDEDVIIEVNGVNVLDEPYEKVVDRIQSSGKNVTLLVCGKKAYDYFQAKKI

T10: PCLO, Q9Y6V0
T10 sequence (Q9Y6V0 4491-4600, limits assumed, looked up): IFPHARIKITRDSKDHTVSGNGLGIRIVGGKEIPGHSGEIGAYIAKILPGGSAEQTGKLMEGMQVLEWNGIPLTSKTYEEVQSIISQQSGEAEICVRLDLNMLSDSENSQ

T11: RADIL, Q96JH8
T11 sequence (Q96JH8 971-1071, limits assumed, looked up): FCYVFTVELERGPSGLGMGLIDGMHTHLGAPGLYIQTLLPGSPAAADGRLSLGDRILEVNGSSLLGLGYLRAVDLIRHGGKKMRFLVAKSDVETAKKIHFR

T12: TX1BP3, O14907
T12 sequence (O14907 10-122, limits assumed, looked up): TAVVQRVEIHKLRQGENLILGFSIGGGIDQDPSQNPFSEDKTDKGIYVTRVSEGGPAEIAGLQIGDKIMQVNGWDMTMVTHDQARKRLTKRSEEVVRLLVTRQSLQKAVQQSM


These binders were tested against T1, APBA2_2, Q99767 (assay: holdup assay). Conditions: plain residues with an end cap or a label only (N-terminal biotin on a linker: ado-ado).
Set-up: key: below the threshold = too weak to quantify, mostly under pKd 3.1 to 4

pKd | Binder
below the threshold | QQGLLPHSSC [TYRO3, Q06418]

These binders were tested against ARHGEF12, Q9NZN5-2 (assay: holdup assay). Conditions: plain residues with an end cap or a label only (N-terminal biotin on a linker: ado-ado).
ARHGEF12, Q9NZN5-2, sequence (Q9NZN5 other isoform, or with tags, fused parts or gaps): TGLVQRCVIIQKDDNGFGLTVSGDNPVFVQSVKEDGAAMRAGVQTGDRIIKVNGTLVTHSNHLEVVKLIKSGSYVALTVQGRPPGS
Set-up: key: below the threshold = too weak to quantify, mostly under pKd 3.1 to 4

pKd | Binder
4.18 | QQGLLPHSSC [TYRO3, Q06418]

What follows are binders tested against T2, DFNB31_2, Q9P202 (assay: holdup assay). Conditions: plain residues with an end cap or a label only (N-terminal biotin on a linker: ado-ado).
Set-up: key: below the threshold = too weak to quantify, mostly under pKd 3.1 to 4

pKd | Binder
below the threshold | QQGLLPHSSC [TYRO3, Q06418]

The binders below were run against FRMPD2_2, Q68DX3 (assay: holdup assay). Conditions: plain residues with an end cap or a label only (N-terminal biotin on a linker: ado-ado).
FRMPD2_2, Q68DX3, sequence (Q68DX3 944-1038): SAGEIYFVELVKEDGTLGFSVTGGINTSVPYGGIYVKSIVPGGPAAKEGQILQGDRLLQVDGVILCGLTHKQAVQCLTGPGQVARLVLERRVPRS
Set-up: key: below the threshold = too weak to quantify, mostly under pKd 3.1 to 4

pKd | Binder
below the threshold | QQGLLPHSSC [TYRO3, Q06418]

Each binder was assayed against FRMPD2_3, Q68DX3 (assay: holdup assay). Conditions: plain residues with an end cap or a label only (N-terminal biotin on a linker: ado-ado).
FRMPD2_3, Q68DX3, sequence (Q68DX3 1073-1166): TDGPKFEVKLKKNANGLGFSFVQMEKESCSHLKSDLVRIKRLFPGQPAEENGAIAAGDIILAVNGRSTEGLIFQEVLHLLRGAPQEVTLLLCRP
Set-up: key: below the threshold = too weak to quantify, mostly under pKd 3.1 to 4

pKd | Binder
below the threshold | QQGLLPHSSC [TYRO3, Q06418]

Each binder was assayed against T3, GRIP1_7, Q9Y3R0 (assay: holdup assay). Conditions: plain residues with an end cap or a label only (N-terminal biotin on a linker: ado-ado).
Set-up: key: below the threshold = too weak to quantify, mostly under pKd 3.1 to 4

pKd | Binder
below the threshold | QQGLLPHSSC [TYRO3, Q06418]

The binders below were run against T4, HTRA4, P83105 (assay: holdup assay). Conditions: plain residues with an end cap or a label only (N-terminal biotin on a linker: ado-ado).
Set-up: key: below the threshold = too weak to quantify, mostly under pKd 3.1 to 4

pKd | Binder
below the threshold | QQGLLPHSSC [TYRO3, Q06418]

Each binder was assayed against IL16_3, Q14005 (assay: holdup assay). Conditions: plain residues with an end cap or a label only (N-terminal biotin on a linker: ado-ado).
IL16_3, Q14005, sequence (Q14005 1107-1207): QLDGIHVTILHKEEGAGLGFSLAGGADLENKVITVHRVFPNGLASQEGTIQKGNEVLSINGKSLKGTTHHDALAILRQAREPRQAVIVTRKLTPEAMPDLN
Set-up: key: below the threshold = too weak to quantify, mostly under pKd 3.1 to 4

pKd | Binder
below the threshold | QQGLLPHSSC [TYRO3, Q06418]

These binders were tested against Inadl_10, Q8NI35 (assay: holdup assay). Conditions: plain residues with an end cap or a label only (N-terminal biotin on a linker: ado-ado).
Inadl_10, Q8NI35, sequence (Q8NI35 1673-1763): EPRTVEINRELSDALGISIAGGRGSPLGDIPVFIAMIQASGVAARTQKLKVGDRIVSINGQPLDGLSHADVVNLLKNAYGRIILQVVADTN
Set-up: key: below the threshold = too weak to quantify, mostly under pKd 3.1 to 4

pKd | Binder
below the threshold | QQGLLPHSSC [TYRO3, Q06418]

The binders below were run against Inadl_5, Q8NI35 (assay: holdup assay). Conditions: plain residues with an end cap or a label only (N-terminal biotin on a linker: ado-ado).
Inadl_5, Q8NI35, sequence (Q8NI35 673-780): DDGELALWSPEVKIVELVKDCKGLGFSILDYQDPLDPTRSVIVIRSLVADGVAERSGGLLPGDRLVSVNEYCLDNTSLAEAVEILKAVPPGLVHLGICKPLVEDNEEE
Set-up: key: below the threshold = too weak to quantify, mostly under pKd 3.1 to 4

pKd | Binder
below the threshold | QQGLLPHSSC [TYRO3, Q06418]

These binders were tested against Inadl_8, Q8NI35 (assay: holdup assay). Conditions: plain residues with an end cap or a label only (N-terminal biotin on a linker: ado-ado).
Inadl_8, Q8NI35, sequence (Q8NI35 1425-1530): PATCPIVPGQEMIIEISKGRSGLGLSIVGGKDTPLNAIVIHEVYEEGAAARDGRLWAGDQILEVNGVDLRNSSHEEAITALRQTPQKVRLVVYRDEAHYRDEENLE
Set-up: key: below the threshold = too weak to quantify, mostly under pKd 3.1 to 4

pKd | Binder
4.08 | QQGLLPHSSC [TYRO3, Q06418]

What follows are binders tested against Inadl_9, Q8NI35 (assay: holdup assay). Conditions: plain residues with an end cap or a label only (N-terminal biotin on a linker: ado-ado).
Inadl_9, Q8NI35, sequence (Q8NI35 1530-1615): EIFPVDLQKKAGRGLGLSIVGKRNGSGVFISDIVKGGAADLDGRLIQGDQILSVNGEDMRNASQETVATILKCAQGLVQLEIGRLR
Set-up: key: below the threshold = too weak to quantify, mostly under pKd 3.1 to 4

pKd | Binder
below the threshold | QQGLLPHSSC [TYRO3, Q06418]

These binders were tested against T5, LIN7A, O14910 (assay: holdup assay). Conditions: plain residues with an end cap or a label only (N-terminal biotin on a linker: ado-ado).
Set-up: key: below the threshold = too weak to quantify, mostly under pKd 3.1 to 4

pKd | Binder
below the threshold | QQGLLPHSSC [TYRO3, Q06418]

Each binder was assayed against LNX1_3, Q8TBB1 (assay: holdup assay). Conditions: plain residues with an end cap or a label only (N-terminal biotin on a linker: ado-ado).
LNX1_3, Q8TBB1, sequence (Q8TBB1 500-596): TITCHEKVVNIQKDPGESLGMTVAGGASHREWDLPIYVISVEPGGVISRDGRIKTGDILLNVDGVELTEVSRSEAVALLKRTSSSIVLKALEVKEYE
Set-up: key: below the threshold = too weak to quantify, mostly under pKd 3.1 to 4

pKd | Binder
below the threshold | QQGLLPHSSC [TYRO3, Q06418]

These binders were tested against T6, LNX2_2, Q8N448 (assay: holdup assay). Conditions: plain residues with an end cap or a label only (N-terminal biotin on a linker: ado-ado).
Set-up: key: below the threshold = too weak to quantify, mostly under pKd 3.1 to 4

pKd | Binder
below the threshold | QQGLLPHSSC [TYRO3, Q06418]

What follows are binders tested against MAGI1_1, Q96QZ7 (assay: holdup assay). Conditions: plain residues with an end cap or a label only (N-terminal biotin on a linker: ado-ado).
MAGI1_1, Q96QZ7, sequence (Q96QZ7 1-106): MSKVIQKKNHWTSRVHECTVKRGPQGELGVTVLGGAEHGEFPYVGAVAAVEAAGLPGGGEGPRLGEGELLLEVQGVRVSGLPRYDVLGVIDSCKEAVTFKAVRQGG
Set-up: key: below the threshold = too weak to quantify, mostly under pKd 3.1 to 4

pKd | Binder
below the threshold | QQGLLPHSSC [TYRO3, Q06418]

What follows are binders tested against MAGI1_2, Q96QZ7 (assay: holdup assay). Conditions: plain residues with an end cap or a label only (N-terminal biotin on a linker: ado-ado).
MAGI1_2, Q96QZ7, sequence (Q96QZ7 456-580): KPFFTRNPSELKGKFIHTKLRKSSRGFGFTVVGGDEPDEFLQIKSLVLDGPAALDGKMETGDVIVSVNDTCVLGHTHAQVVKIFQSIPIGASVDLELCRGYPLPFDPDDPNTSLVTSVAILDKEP
Set-up: key: below the threshold = too weak to quantify, mostly under pKd 3.1 to 4

pKd | Binder
below the threshold | QQGLLPHSSC [TYRO3, Q06418]

What follows are binders tested against MAGI3_2, Q5TCQ9 (assay: holdup assay). Conditions: plain residues with an end cap or a label only (N-terminal biotin on a linker: ado-ado).
MAGI3_2, Q5TCQ9, sequence (Q5TCQ9 398-503): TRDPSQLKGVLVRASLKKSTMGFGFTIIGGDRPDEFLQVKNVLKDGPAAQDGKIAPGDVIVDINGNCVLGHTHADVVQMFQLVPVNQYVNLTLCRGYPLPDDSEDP
Set-up: key: below the threshold = too weak to quantify, mostly under pKd 3.1 to 4

pKd | Binder
below the threshold | QQGLLPHSSC [TYRO3, Q06418]

These binders were tested against T7, MPDZ_10, O75970 (assay: holdup assay). Conditions: plain residues with an end cap or a label only (N-terminal biotin on a linker: ado-ado).
Set-up: key: below the threshold = too weak to quantify, mostly under pKd 3.1 to 4

pKd | Binder
3.72 | QQGLLPHSSC [TYRO3, Q06418]

The binders below were run against T8, MPP2, Q14168 (assay: holdup assay). Conditions: plain residues with an end cap or a label only (N-terminal biotin on a linker: ado-ado).
Set-up: key: below the threshold = too weak to quantify, mostly under pKd 3.1 to 4

pKd | Binder
below the threshold | QQGLLPHSSC [TYRO3, Q06418]

The binders below were run against T9, NHERF3_4, Q5T2W1 (assay: holdup assay). Conditions: plain residues with an end cap or a label only (N-terminal biotin on a linker: ado-ado).
Set-up: key: below the threshold = too weak to quantify, mostly under pKd 3.1 to 4

pKd | Binder
below the threshold | QQGLLPHSSC [TYRO3, Q06418]

The binders below were run against T10, PCLO, Q9Y6V0 (assay: holdup assay). Conditions: plain residues with an end cap or a label only (N-terminal biotin on a linker: ado-ado).
Set-up: key: below the threshold = too weak to quantify, mostly under pKd 3.1 to 4

pKd | Binder
below the threshold | QQGLLPHSSC [TYRO3, Q06418]

What follows are binders tested against T11, RADIL, Q96JH8 (assay: holdup assay). Conditions: plain residues with an end cap or a label only (N-terminal biotin on a linker: ado-ado).
Set-up: key: below the threshold = too weak to quantify, mostly under pKd 3.1 to 4

pKd | Binder
below the threshold | QQGLLPHSSC [TYRO3, Q06418]

These binders were tested against TJP1_2, Q07157 (assay: holdup assay). Conditions: plain residues with an end cap or a label only (N-terminal biotin on a linker: ado-ado).
TJP1_2, Q07157, sequence (Q07157 181-274): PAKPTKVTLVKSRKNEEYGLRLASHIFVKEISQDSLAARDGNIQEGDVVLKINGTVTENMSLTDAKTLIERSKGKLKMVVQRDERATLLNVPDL
Set-up: key: below the threshold = too weak to quantify, mostly under pKd 3.1 to 4

pKd | Binder
below the threshold | QQGLLPHSSC [TYRO3, Q06418]

What follows are binders tested against TJP2_1, Q9UDY2 (assay: holdup assay). Conditions: plain residues with an end cap or a label only (N-terminal biotin on a linker: ado-ado).
TJP2_1, Q9UDY2, sequence (Q9UDY2 24-128): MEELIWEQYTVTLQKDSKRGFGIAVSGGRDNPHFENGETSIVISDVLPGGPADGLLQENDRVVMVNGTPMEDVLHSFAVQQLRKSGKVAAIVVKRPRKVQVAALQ
Set-up: key: below the threshold = too weak to quantify, mostly under pKd 3.1 to 4

pKd | Binder
below the threshold | QQGLLPHSSC [TYRO3, Q06418]

These binders were tested against T12, TX1BP3, O14907 (assay: holdup assay). Conditions: plain residues with an end cap or a label only (N-terminal biotin on a linker: ado-ado).
Set-up: key: below the threshold = too weak to quantify, mostly under pKd 3.1 to 4

pKd | Binder
below the threshold | QQGLLPHSSC [TYRO3, Q06418]
